{
  "source": "patent US7128910B2",
  "about": "“Moraxella catarrahalis outer membrane protein-106 polypeptide, gene sequences and uses thereof” (priority 1996, dated 2006)",
  "system": "M. catarrhalis ATCC 49143",
  "experiment": "Proteolytic digestion of intact cells followed by hemagglutination test",
  "type": "cell-based, Moraxella catarrhalis",
  "settings": "intact cells digested 1 hour at room temperature",
  "experimental": "All proteases were obtained from Sigma Chemicals (St. Louis, Mo.). Immediately following the protease treatment, cells were washed once in PBS and resuspended in 1 ml of PBS and the hemagglutinating activity was tested. Additionally, protease-treated bacterial cells were extracted with octyl glucoside so the outer membrane proteins could be resolved to identify specific proteins that may have been digested by the proteases.",
  "data": [
    {"molecule": "proteinase K: Protease from Sigma Chemicals (protein, UniProt P06873 106-384, looked up) Proteinase K: AAQTNAPWGLARISSTSPGTSTYYYDESAGQGSCVYVIDTGIEASHPEFEGRAQMVKTYYYSSRDGNGHGTHCAGTVGSRTYGVAKKTQLFGVKVLDDNGSGQYSTIIAGMDFVASDKNNRNCPKGVVASLSLGGGYSSSVNSAAARLQSSGVMVAVAAGNNNADARNYSPASEPSVCTVGASDRYDRRSSFSNYGSVLDIFGPGTSILSTWIGGSTRSISGTSMATPHVAGLAAYLMTLGKTTAASACRYIADTANKGDLSNIPFGTVNLLAYNNYQA", "values": [
      {"measurement": "Effect of protease treatment on hemagglutination activity", "value": "destroyed the hemagglutination activity"}
    ]}
  ]
}
